# Laboratory results from IntAct's records for PubMed 22483987.
# B1: Glutamate receptor ionotropic, kainate 2 (Rattus norvegicus (Rat)), P42260 (parent)
# chain: MKIISPVLSNLVFSRSIKVLLCLLWIGYSQGTTHVLRFGGIFEYVESGPMGAEELAFRFAVNTINRNRTLLPNTTLTYDTQKINLYDSFEASKKACDQLSLGVAAIFGPSHSSSANAVQSICNALGVPHIQTRWKHQVSDNKDSFYVSLYPDFSSLSRAILDLVQFFKWKTVTVVYDDSTGLIRLQELIKAPSRYNLRLKIRQLPADTKDAKPLLKEMKRGKEFHVIFDCSHEMAAGILKQALAMGMMTEYYHYIFTTLDLFALDVEPYRYSGVNMTGFRILNTENTQVSSIIEKWSMERLQAPPKPDSGLLDGFMTTDAALMYDAVHVVSVAVQQFPQMTVSSLQCNRHKPWRFGTRFMSLIKEAHWEGLTGRITFNKTNGLRTDFDLDVISLKEEGLEKIGTWDPASGLNMTESQKGKPANITDSLSNRSLIVTTILEEPYVLFKKSDKPLYGNDRFEGYCIDLLRELSTILGFTYEIRLVEDGKYGAQDDVNGQWNGMVRELIDHKADLAVAPLAITYVREKVIDFSKPFMTLGISILYRKPNGTNPGVFSFLNPLSPDIWMYILLAYLGVSCVLFVIARFSPYEWYNPHPCNPDSDVVENNFTLLNSFWFGVGALMQQGSELMPKALSTRIVGGIWWFFTLIIISSYTANLAAFLTVERMESPIDSADDLAKQTKIEYGAVEDGATMTFFKKSKISTYDKMWAFMSSRRQSVLVKSNEEGIQRVLTSDYAFLMESTTIEFVTQRNCNLTQIGGLIDSKGYGVGTPMGSPYRDKITIAILQLQEEGKLHMMKEKWWRGNGCPEEESKEASALGVQNIGGIFIVLAAGLVLSVFVAVGEFLYKSKKNAQLEKRSFCSAMVEELRMSLKCQRRLKHKPQAPVIVKTEEVINMHTFNDRRLPGKETMA
# Variants of: B1
# Conditions: with MAP3K11, Q16584
# MAP3K11, Q16584, sequence (Q16584 whole entry, looked up): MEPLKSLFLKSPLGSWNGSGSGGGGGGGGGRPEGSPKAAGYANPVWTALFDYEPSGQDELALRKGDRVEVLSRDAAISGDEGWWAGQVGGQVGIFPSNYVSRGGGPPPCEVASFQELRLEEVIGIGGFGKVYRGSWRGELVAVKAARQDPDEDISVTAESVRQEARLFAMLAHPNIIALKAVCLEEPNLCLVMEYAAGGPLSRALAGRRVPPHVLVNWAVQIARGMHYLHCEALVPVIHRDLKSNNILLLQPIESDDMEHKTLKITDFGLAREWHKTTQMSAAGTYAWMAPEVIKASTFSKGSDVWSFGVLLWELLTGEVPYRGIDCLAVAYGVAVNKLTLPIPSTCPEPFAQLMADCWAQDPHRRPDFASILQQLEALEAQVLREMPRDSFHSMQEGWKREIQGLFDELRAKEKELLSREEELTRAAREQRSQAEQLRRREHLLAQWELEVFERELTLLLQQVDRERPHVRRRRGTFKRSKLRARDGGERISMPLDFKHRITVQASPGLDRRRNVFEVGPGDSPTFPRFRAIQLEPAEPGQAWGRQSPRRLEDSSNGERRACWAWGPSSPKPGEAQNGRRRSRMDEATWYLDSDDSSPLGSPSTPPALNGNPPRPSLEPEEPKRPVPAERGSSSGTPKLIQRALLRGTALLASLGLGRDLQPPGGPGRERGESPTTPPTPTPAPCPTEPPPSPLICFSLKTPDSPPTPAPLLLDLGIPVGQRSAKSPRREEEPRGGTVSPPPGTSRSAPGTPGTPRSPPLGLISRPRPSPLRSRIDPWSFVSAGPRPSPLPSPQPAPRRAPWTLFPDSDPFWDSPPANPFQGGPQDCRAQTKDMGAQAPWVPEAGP
row,Variant,effect of a mutation on the interaction
1,K886R,decreasing interaction
